Measurements: the supplement of paper PMC12764529
± gives the half width of the 95% confidence interval.

How the values were obtained:
[1] = folding stability dG unfold from trypsin proteolysis; higher = more stable
How it was run: (§1)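 Mini-proteins designed to be under 80 residues and free of cysteine were carried in a PA-tagged cDNA display construct and digested with trypsin and with chymotrypsin. Each protease was applied at 11 threefold-diluted concentrations, alongside a no-protease condition, before sequencing. K50 came from Bayesian fitting of the sequencing counts, and unfolding free energy was obtained by comparing it with a sequence-predicted unfolded-state K50 and a shared folded-state K50, for each protease separately or for both together. Designs were retained only if their AlphaFold2 dimer inter-PAE exceeded 15.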

[2] = folding stability dG unfold from chymotrypsin proteolysis; higher = more stable
How it was run: as §1

[3] = folding stability dG unfold (combined trypsin and chymotrypsin); higher = more stable
How it was run: as §1

| Sequence | folding stability dG unfold [1] [kcal/mol] | folding stability dG unfold [2] [kcal/mol] | folding stability dG unfold [3] [kcal/mol] |
| --- | --- | --- | --- |
| SAGMKTYTITVPASEAEEAAEKAAEEIKKELGLPDSDTVEVTVTSYDPKTGTVTITITVTRPLPGGLSLSAG [r5_537_JUSTAS] | 2.74 ± 0.13 | 1.76 ± 0.084 | 2.19 ± 0.2 |
| SAGGSAGGSAGMKVEIEVYELPGGERPVKITVTYENKPKEYEKEAETEEEAEEFAKELLESAGGSAGGSAGG [r11_560_JUSTAS] | -0.237 ± 0.23 | 0.039 ± 0.58 | -0.0487 ± 0.57 |
| SEVEVTVTVTLTRRLPDGREREVTVTLTLRLEFDPELSEEELESPELRKRLEELRREALERARRLAEELASA [r9_237_TrROS_Hall] | 4.64 ± 0.18 | 6.52 ± 0.22 | > 6 |
| SAGGSAGGSKTVEITITRKDGKKLKIEFYPDGYIKIYDSNGKLVKTIKVDPNASIEEILKALKSAGGSAGGS [r12_990_TrROS_Hall] | 3.31 ± 0.12 | 3.38 ± 0.038 | 3.39 ± 0.083 |
| SAGGSAGGSPDEGDPVKITILIMIMIPNENGEPYFIFIRVEITIDPKDNKIQITKIDEIYIFPSAGGSAGGS [r12_358_TrROS] | 3.74 ± 0.16 | 4.66 ± 0.1 | 4.42 ± 0.12 |
| SGKVVATVPLPDGTVITVEVSPDNTVRVTVVRYRLVPNSTAPAVEVRTYTFPLPPGNPPSIQDVLDRVLSSA [r9_614_TrMRF] | 4.05 ± 0.14 | 4.53 ± 0.053 | 4.41 ± 0.098 |
| SAGGSASRRLFVRTLPDDAVIVVEVPPGMSEEEAVEIAERRAEAAERVLRAAIEAERAGKAPVIPLSAGGSA [r15_704_TrMRF] | 0.594 ± 0.13 | -0.0499 ± 0.29 | 0.342 ± 0.11 |
| SAGGSAGGSAGDEPNDVVKIDFTFFFEDGYMIEMDIVIVPNGNIAIEIEIEPIKPPDEGDSAGGSAGGSAGG [r11_998_TrROS] | 2.06 ± 0.39 | 1.9 ± 0.13 | 2.09 ± 0.31 |
| SAGGSATLPEKILEELAAAGYPLEYVTITEVKTEERPGSVVVTVKVEYKVPNSDRIETVNLTVPRPSAGGSA [r15_863_JUSTAS] | 1.71 ± 0.032 | 1.68 ± 0.029 | 1.73 ± 0.036 |
| SAGGAEIKITSIEYNPETKTITAKVEITVDGKKFTFTITIKLKAAPAPPTVTVTDKDIPGKTVTLTKTSAGG [r13_615_TrROS_Hall] | 1.51 ± 0.14 | 2.38 ± 0.13 | 2.1 ± 0.24 |
| SAGGSAGGSMVFESTSVYTFPEQNTVVVTKTTTTVTKTPDGSSSVSTSTTTTVLTVPPPEPLVSAGGSAGGS [r12_277_JUSTAS] | 2.64 ± 0.12 | 3.64 ± 0.13 | 2.85 ± 0.3 |
| SAGGKKVVIVFDVENLTPEQIRELVRKAIESLPDPENVVIVANVTSPATVEELAELAKEHPEVKFVVGSAGG [r13_718_TrMRF] | 3.79 ± 0.11 | 3.45 ± 0.085 | 3.56 ± 0.12 |
| SAGMVIPREEALANYSEEEIKELAKKIAEELGYKPKKIEIKKDPSPNSSITVTITPPDGSTIPLVLELPSAG [r5_745_JUSTAS] | 0.959 ± 0.041 | 1.08 ± 0.037 | 1.06 ± 0.047 |
| SKPTLTLKLTVVVKDENGEKKTVTLTIPVSEEELEKLLKEIAKELGLKDVKVVKIEKNKNGFIKITVEVKSA [r9_1101_TrROS_Hall] | 2.16 ± 0.12 | 2.36 ± 0.033 | 2.36 ± 0.21 |
| SAGGMTLTIEIVVPPGTTVEELKKALEELGYEITSIEVEYDPETDLVTVRMEIRLPPPPPVSEEEKKSAGGS [r16_584_TrROS_Hall] | 1.87 ± 0.076 | 3.23 ± 0.16 | 2.73 ± 0.17 |
| SAGGSAKRKVEIEIYISREELEEAKKNGKEPTAEAQKQIHRIAKRAREEGMDTVEIKIIPPGQPIPSAGGSA [r15_304_TrROS] | -0.0963 ± 0.34 | 0.785 ± 0.18 | 0.309 ± 0.28 |

| Sequence | folding stability dG unfold [1] [kcal/mol] | folding stability dG unfold [2] [kcal/mol] | folding stability dG unfold [3] [kcal/mol] |
| --- | --- | --- | --- |
| SAGGSAGGSSYLVEVISRKKVKVGGKERYVVPVRIPDNGELVELVVSEDVAKNIKPGDVVVLSSAGGSAGGS [r12_382_TrMRF] | -0.00477 ± 0.058 | -0.00598 ± 0.12 | 0.0239 ± 0.12 |
| SAGGSAGGSAGGMTPEEKIEALIKATPPLTVKTSGPGVSYEVEDLEKLKKLNVTISSVLGSAGGSAGGSAGG [r7_504_JUSTAS] | -1.3 ± 0.67 | -0.683 ± 0.24 | -0.637 ± 0.22 |
| SAGGSAGGPNIRIIIKPDPENGTLKIWFVHPEPGRIQKYEFNMNGKWKIKEPVGPMKPGDPGLLSAGGSAGG [r6_149_TrROS] | 0.668 ± 0.16 | 1.52 ± 0.33 | 1.33 ± 0.34 |
| SAEVIEKTLTETVIGDTVVTPSVVEFPDGSVVEKVTTVSPDGTVTVTTYYFPPDGVRTFLSTTTVPLDLSAG [r14_680_JUSTAS] | 0.585 ± 0.03 | 1.16 ± 0.07 | 0.939 ± 0.07 |
| SAGGSAGGSAGMTLKVEVKVKVKVFDENGKLVREEEVTVEVEIELEPAPELRFLSEEELKSAGGSAGGSAGG [r17_325_TrROS_Hall] | 1.24 ± 0.053 | 2.63 ± 0.057 | 2.12 ± 0.11 |
| SMTITIERPVPPELTDRPLSLELPLPNGSTVSVKVETSPTTATVTITTNDPSLEAEVKARVEELLARLLASA [r9_790_JUSTAS] | 2.56 ± 0.094 | 2.058 ± 0.02 | 2.27 ± 0.1 |
| SAGGSAGGSGPNIKVSSSTSTYTLPNGKKVTVKTIVIETENSKYLIVVLTDPNGKSIVFIKPLSAGGSAGGS [r12_213_TrMRF] | 3.21 ± 0.23 | 3.92 ± 0.15 | 3.89 ± 0.28 |
| SAGGKTIVIKVKTKEQAKALAEELAKKLKDAGYTVTVTYDEETGVVTVTVTVKVNGKTKKITLVLELPSAGG [r13_641_TrROS_Hall] | 3.51 ± 0.074 | 3.05 ± 0.043 | 3.26 ± 0.038 |
| SAGGSPIQTAVTTNTLGNETITTTTLVPPEAVATSVTTVYEPDPNSDNYVVKSVLTTTTSTLPPSDAASAGG [r13_568_JUSTAS] | -0.417 ± 0.055 | 0.0608 ± 0.067 | -0.0865 ± 0.062 |
| SAGGSAMKLVLTFPEGLPEIPLEELAKAIEDALPEDFEVKEIKVEPLPDGGLRLTFIVNDEEVEILSAGGSA [r15_451_TrMRF] | 2.52 ± 0.062 | 2.52 ± 0.017 | 2.54 ± 0.048 |
| SAGGGLGADALAKKFKELFPNAKVEKLPNGKVLFYIPETGKLIEIYDLDDEQIIKIIDPNTPKVYIISAGGS [r16_478_TrMRF] | 1.68 ± 0.077 | 0.986 ± 0.13 | 1.44 ± 0.11 |
| SAGGSAGGSDIPIEIVDVEHTDNMISVIIKGPDGNYFVINFQFNPGNGKFNVNISIIPPEDLKSAGGSAGGS [r20_70_TrROS] | 2.07 ± 0.21 | 3.95 ± 0.26 | 3.55 ± 0.26 |
| SAGGSAGGSAGSMSLPVTELVVESVDPLEGVLVVKVKGTLPDGSEVELTLEFKPDEPLELSAGGSAGGSAGG [r11_211_JUSTAS] | 0.992 ± 0.043 | 0.375 ± 0.066 | 0.71 ± 0.11 |
| SAGGSAGGSAGGSKPMYLFTVETENGKKLVIEAKSLEEALKALEKAGYKIKKVEVVKLPSAGGSAGGSAGGS [r4_213_TrROS_Hall] | 3.36 ± 0.1 | 3.996 ± 0.036 | 3.81 ± 0.071 |
| SAGGSAGGSAGGHYIRAEIEIKYEHPGNGQEQTMTIPIEIPIPPPPPVSAEDRAKQNGIGSAGGSAGGSAGG [r7_79_TrROS] | 0.318 ± 0.084 | 0.855 ± 0.041 | 0.669 ± 0.065 |
